{
  "source": "patent US20230212237",
  "proteins": {"B1": {"name": "FLAG-TSC1 and FLAG-TSC2 (TSC complex) (protein)", "chain 1": "MAQQANVGELLAMLDSPMLGVRDDVTAVFKENLNSDRGPMLVNTLVDYYLETSSQPALHILTTLQEPHDKHLLDRINEYVGKAATRLSILSLLGHVIRLQPSWKHKLSQAPLLPSLLKCLKMDTDVVVLTTGVLVLITMLPMIPQSGKQHLLDFFDIFGRLSSWCLKKPGHVAEVYLVHLHASVYALFHRLYGMYPCNFVSFLRSHYSMKENLETFEEVVKPMMEHVRIHPELVTGSKDHELDPRRWKRLETHDVVIECAKISLDPTEASYEDGYSVSHQISARFPHRSADVTTSPYADTQNSYGCATSTPYSTSRLMLLNMPGQLPQTLSSPSTRLITEPPQATLWSPSMVCGMTTPPTSPGNVPPDLSHPYSKVFGTTAGGKGTPLGTPATSPPPAPLCHSDDYVHISLPQATVTPPRKEERMDSARPCLHRQHHLLNDRGSEEPPGSKGSVTLSDLPGFLGDLASEEDSIEKDKEEAAISRELSEITTAEAEPVVPRGGFDSPFYRDSLPGSQRKTHSAASSSQGASVNPEPLHSSLDKLGPDTPKQAFTPIDLPCGSADESPAGDRECQTSLETSIFTPSPCKIPPPTRVGFGSGQPPPYDHLFEVALPKTAHHFVIRKTEELLKKAKGNTEEDGVPSTSPMEVLDRLIQQGADAHSKELNKLPLPSKSVDWTHFGGSPPSDEIRTLRDQLLLLHNQLLYERFKRQQHALRNRRLLRKVIKAAALEEHNAAMKDQLKLQEKDIQMWKVSLQKEQARYNQLQEQRDTMVTKLHSQIRQLQHDREEFYNQSQELQTKLEDCRNMIAELRIELKKANNKVCHTELLLSQVSQKLSNSESVQQQMEFLNRQLLVLGEVNELYLEQLQNKHSDTTKEVEMMKAAYRKELEKNRSHVLQQTQRLDTSQKRILELESHLAKKDHLLLEQKKYLEDVKLQARGQLQAAESRYEAQKRITQVFELEILDLYGRLEKDGLLKKLEEEKAEAAEAAEERLDCCNDGCSDSMVGHNEEASGHNGETKTPRPSSARGSSGSRGGGGSSSSSSELSTPEKPPHQRAGPFSSRWETTMGEASASIPTTVGSLPSSKSFLGMKARELFRNKSESQCDEDGMTSSLSESLKTELGKDLGVEAKIPLNLDGPHPSPPTPDSVGQLHIMDYNETHHEHS", "chain 2": "not shown"}},
  "key": {"[1]": {"target": "GST-Rheb wild type (recombinant, human Rheb)", "sequence (chain, as listed by the source)": "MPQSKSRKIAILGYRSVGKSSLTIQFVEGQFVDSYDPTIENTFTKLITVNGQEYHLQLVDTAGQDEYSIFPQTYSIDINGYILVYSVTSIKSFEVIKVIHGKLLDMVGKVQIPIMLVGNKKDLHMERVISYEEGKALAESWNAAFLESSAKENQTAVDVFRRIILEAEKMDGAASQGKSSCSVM"}},
  "data": [
    {"protein": "B1", "values": [
      {"measurement": "GAP assay: hydrolysis of Rheb-bound [alpha-32P]GTP to GDP (thin-layer chromatography)", "setting": "GST-Rheb Y35N", "value": "TSC1/TSC2 were completely unable to promote hydrolysis of GTP bound to the S21L, T23M, Y35N, E40K and G63A mutants"},
      {"measurement": "GAP assay: hydrolysis of Rheb-bound [alpha-32P]GTP to GDP (thin-layer chromatography)", "setting": "GST-Rheb G63A", "value": "TSC1/TSC2 were completely unable to promote hydrolysis of GTP bound to the S21L, T23M, Y35N, E40K and G63A mutants"},
      {"measurement": "GAP assay: hydrolysis of Rheb-bound [alpha-32P]GTP to GDP (thin-layer chromatography)", "setting": "GST-Rheb T23M", "value": "TSC1/TSC2 were completely unable to promote hydrolysis of GTP bound to the S21L, T23M, Y35N, E40K and G63A mutants"},
      {"measurement": "GAP assay: hydrolysis of Rheb-bound [alpha-32P]GTP to GDP (thin-layer chromatography)", "setting": "[1]", "value": "Incubation with FLAG-TSC1 and FLAG-TSC2 led to hydrolysis of Rheb-GTP into Rheb-GDP"},
      {"measurement": "GAP assay: hydrolysis of Rheb-bound [alpha-32P]GTP to GDP (thin-layer chromatography)", "setting": "GST-Rheb Q64L", "value": "partial resistance to them was seen for Rheb mutants G29S and Q64L"},
      {"measurement": "GAP assay: hydrolysis of Rheb-bound [alpha-32P]GTP to GDP (thin-layer chromatography)", "setting": "GST-Rheb G29S", "value": "partial resistance to them was seen for Rheb mutants G29S and Q64L"},
      {"measurement": "GAP assay: hydrolysis of Rheb-bound [alpha-32P]GTP to GDP (thin-layer chromatography)", "setting": "GST-Rheb E40K", "value": "TSC1/TSC2 were completely unable to promote hydrolysis of GTP bound to the S21L, T23M, Y35N, E40K and G63A mutants"},
      {"measurement": "GAP assay: hydrolysis of Rheb-bound [alpha-32P]GTP to GDP (thin-layer chromatography)", "setting": "GST-Rheb S21L", "value": "TSC1/TSC2 were completely unable to promote hydrolysis of GTP bound to the S21L, T23M, Y35N, E40K and G63A mutants"}
    ]}
  ]
}
